Experimental data taken from the Immune Epitope Database (IEDB).

molecular target: HLA-A*02:03; test: IEDB peptide-MHC binding, purified MHC/competitive/radioactivity; ≥ and ≤ were set here for values at or beyond the usual limits of such assays; conditions: source organism: SARS-CoV1

Sequence | IC50
ALYKGFQFI | 0.0033 µM
FLITGVFDI | 0.00076 µM
FLLVTLAIL | 0.00097 µM
FLNRFTTTL | 0.001 µM
FLTSLLILV | 0.012 µM
FTYASALWEI | 0.006 µM
SMWALVISV | 0.0044 µM
TLLCVLAAL | 0.011 µM
TLMNVITLV | 0.00025 µM
TLNEDLLEI | 0.0022 µM
VLAWLYAAV | 0.00031 µM

same assay, conditions: source organism: Vaccinia virus WR

Sequence | IC50
AAAATCALV | 0.0091 µM
AADLTQIFEV | 0.404 µM
AAIDRQVSV | 0.019 µM
AAITLVVISV | 0.246 µM
AAVIIMAINV | 0.607 µM
AIFNNRNLA | 0.098 µM
AIFNNRNLAA | 0.103 µM
AILHNIYRL | 0.814 µM
AISAVYFKA | 0.525 µM
AISYCRAFI | 0.149 µM
AITLVVISVI | 0.786 µM
ALAEHISDSI | 0.00034 µM
ALINLVQYRI | 0.082 µM
ALKAYFTAKI | 0.077 µM
ALVSDCAST | 0.031 µM
ALVSDCASTI | 0.052 µM
ALYSPPLISI | 0.15 µM
AMLKSKNINI | 0.223 µM
ATFRDMLLNV | 0.0004 µM
ATICLKNEGV | 0.071 µM
ATLNTLITLI | 0.028 µM
IIGHIGHHYI | 0.186 µM
KLRSSPPIPM | 0.134 µM
KTIAVSVYGA | 0.224 µM
MTSTRTIILV | 0.92 µM
RIEDMFLTSV | 0.071 µM
SLFIESSICL | 0.293 µM
YTRPEIDVL | 0.074 µM

molecular target: HLA-A*02:01; test: as above; conditions: source organism: Hepacivirus hominis

Sequence | IC50
ALLSCISVPV | 0.028 µM
ALMIAAQVVV | 0.129 µM

same assay, conditions: source organism: Mammarenavirus choriomeningitidis

Sequence | IC50
ALMDLLMFS | 0.0024 µM

same assay, conditions: source organism: Mammarenavirus machupoense

Sequence | IC50
ALNIALVAV | 0.079 µM
AMPGVLSYV | 0.0084 µM

same assay, conditions: source organism: SARS-CoV1

Sequence | IC50
AIAACAMLLV | 0.036 µM
AIILASFSA | 0.274 µM
AIMTRCLAV | 0.0059 µM
ALIARCWYL | 0.00046 µM
ALLFLMSFTI | 0.0016 µM
ALVCYIVMPV | 0.0056 µM
ALYKGFQFI | 0.0052 µM

same assay, conditions: source organism: Vaccinia virus WR

Sequence | IC50
AAAATCALV | 0.041 µM
AADLTQIFEV | 0.017 µM
AAIDRQVSV | 1.47 µM
AAITLVVISV | 0.369 µM
AAVIIMAINV | 1.45 µM
AIFNNRNLA | 3.18 µM
AIFNNRNLAA | 1.33 µM
AILHNIYRL | 0.048 µM
AISAVYFKA | 0.041 µM
AISYCRAFI | 0.169 µM
AITLVVISVI | 0.494 µM
ALAEHISDSI | 0.0087 µM
ALINLVQYRI | 0.03 µM
ALKAYFTAKI | 1.6 µM
ALVSDCAST | 0.115 µM
ALVSDCASTI | 0.072 µM
ALYSPPLISI | 1.13 µM
AMLKSKNINI | 0.175 µM
ATFRDMLLNV | 0.0083 µM
ATICLKNEGV | 0.239 µM
ATLNTLITLI | 0.543 µM
SMHFYGWSL | 0.192 µM

molecular target: HLA-A*02:06; test: as above; conditions: source organism: Hepacivirus hominis

Sequence | IC50
ALLSCISVPV | 0.076 µM
ALMIAAQVVV | 0.614 µM
FISGIQYLA | 1.34 µM
QMWKCLIRL | 0.218 µM
RLWHYPCTV | 0.131 µM
YLNTPGLPV | 0.847 µM

same assay, conditions: source organism: Influenza A virus

Sequence | IC50
FNMLSTVLGV | 0.031 µM
MLLRSAIGQV | 0.242 µM
NMLSTVLGV | 0.071 µM

same assay, conditions: source organism: Mammarenavirus choriomeningitidis

Sequence | IC50
ALMDLLMFS | 0.014 µM

same assay, conditions: source organism: Mammarenavirus machupoense

Sequence | IC50
ALNIALVAV | 0.371 µM
AMPGVLSYV | 0.022 µM

same assay, conditions: source organism: SARS-CoV1

Sequence | IC50
AIAACAMLLV | 0.078 µM
AIILASFSA | 0.082 µM
AIMTRCLAV | 0.027 µM
ALIARCWYL | 0.00098 µM
ALLFLMSFTI | 0.014 µM
ALVCYIVMPV | 0.0029 µM
ALYKGFQFI | 0.002 µM
FLITGVFDI | 0.0015 µM
FLLVTLAIL | 0.00048 µM
FLNRFTTTL | 0.058 µM
FLTSLLILV | 0.0033 µM
FTYASALWEI | 0.0025 µM
SMWALVISV | 0.00079 µM
TLLCVLAAL | 0.008 µM
TLMNVITLV | 0.0007 µM
TLNEDLLEI | 0.056 µM
VLAWLYAAV | 0.0088 µM

same assay, conditions: source organism: Vaccinia virus WR

Sequence | IC50
AAAATCALV | 0.012 µM
AADLTQIFEV | 0.011 µM
AAIDRQVSV | 0.015 µM
AAITLVVISV | 0.027 µM
AAVIIMAINV | 0.446 µM
AIFNNRNLA | 0.0071 µM
AIFNNRNLAA | 0.774 µM
AILHNIYRL | 0.044 µM
AISAVYFKA | 0.149 µM
AISYCRAFI | 0.146 µM
AITLVVISVI | 2 µM
ALAEHISDSI | 0.163 µM
ALINLVQYRI | 0.417 µM
ALKAYFTAKI | 2.78 µM
ALVSDCAST | 0.311 µM
ALVSDCASTI | 0.24 µM
ALYSPPLISI | 0.162 µM
AMLKSKNINI | 0.2 µM
ATFRDMLLNV | 0.003 µM
ATICLKNEGV | 0.042 µM
ATLNTLITLI | 0.198 µM
IIGHIGHHYI | 1.35 µM
KLRSSPPIPM | 2.21 µM
KTIAVSVYGA | 0.427 µM
MTSTRTIILV | 0.217 µM
RIEDMFLTSV | 0.168 µM
SLFIESSICL | 0.982 µM
SMHFYGWSL | 0.383 µM
YTRPEIDVL | 0.154 µM
